The assay concerns the target monomeric human protein of therapeutic interest (antigen of Examples 1-7) (human). Kind of assay: competition flow cytometry; control scFv-Fc supernatant preincubated 15 min with 10 nM labeled antigen, then yeast displaying parental scFv added. (In general: A flow cytometer gives signals particle by particle.)

For unrelated scFv-Fc (control) (Fc fusion), the Q2 (% of cells displaying the parental scFv that bind antigen in presence of the competing scFv-Fc) was 69.9%.

The values are drawn from patent US20230167165A1.
